The target of assay [1] is T1, human pro-epiregulin (human, UniProt O14944 30-169).
T1 construct: Endogenous protein in FFPE tissue sections, xenografts and cell lysates (IHC, Western blot); also called EREG; pro-EREG
T1 sequence: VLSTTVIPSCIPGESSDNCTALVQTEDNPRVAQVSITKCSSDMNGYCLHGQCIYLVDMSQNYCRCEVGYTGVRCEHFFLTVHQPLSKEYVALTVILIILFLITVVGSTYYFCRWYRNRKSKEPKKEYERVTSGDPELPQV
The assay is described as follows: IHC on FFPE carcinoma cell lines and colorectal cancer cases (OptiView DAB). Here is the method: (§1) All assay optimization were performed on human non-small cell lung carcinoma (NSCLC) (NCI-H1975; NCI-H1650; H460; NCI-HCC827; H2228; Calu-3; H820), breast (MCF7; A431) carcinoma cell lines and colorectal cancer tissues. Stained slides for the tested conditions were evaluated by a trained pathologist and the optimal staining conditions were determined based on the staining intensity, percentage of positive cells and the level of non-specific (background) staining.
(§2) The assay performance of EREG/AREG IHC assays were evaluated on 8 colorectal cancer cases kindly provided by Dr. Paul Waring. Specimens were immunohistochemically stained for EREG expression with clone J5H1L1 and for AREG expression with J111H1L10 on a VENTANA BenchMark XT IHC/ISH instrument.

Another assay addresses T2, human amphiregulin (human, UniProt P15514 20-252).
T2 construct: Endogenous protein in FFPE tissue sections and cell lysates (IHC, Western blot); also called AREG; pro-AREG
T2 sequence: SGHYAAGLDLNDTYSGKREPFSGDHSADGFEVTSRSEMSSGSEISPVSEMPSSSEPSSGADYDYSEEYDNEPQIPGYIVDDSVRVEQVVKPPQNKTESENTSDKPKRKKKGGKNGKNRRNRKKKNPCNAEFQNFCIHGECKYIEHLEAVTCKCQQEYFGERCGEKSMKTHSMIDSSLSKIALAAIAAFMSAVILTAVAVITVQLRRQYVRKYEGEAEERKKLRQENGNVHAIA
Described as above. The procedure:
as §1, §2

For assay [2], the target named is T1, human pro-epiregulin. Briefly: recombinant antibodies screened for binding to human pro-epiregulin by IHC.

B1: anti-human pro-epiregulin monoclonal antibody J5H1L1 (antibody, V domains shown)
VH: QSVEESGGRLVTPGTPLTLTCTVSGFSLSRYGMSWVRQAPGKGLEYIGSINRTAYTYYATWAKGRFTISRTSTTVDLRMTSLTTEDTATYFCARGLTYGGSDYDYDDALWGPGTLVTVSS
VL: QVLTQTPSSVSAAVGGTVTINCQASQSVYKNKNLAWYQQKPGQPPKLLIYRASTLASGVSSRFKGSGSGTQFTLTISGVQCADAATYYCQGEFSCSTFDCILFGGGTEMVVK
notes: also called clone J5H1L1; EREG J5H1L1
For B1, in the assay with human pro-epiregulin [1], the binding result is “binds”.

B2: anti-human amphiregulin monoclonal antibody J111H1L10 (antibody, V domains shown)
VH: QSLEESRGGLIKPGGTLTLTCTVSGFSLSSYAISWVRQAPGNGLEWIGFIVGSSGSAYYASWAKSRSTITRDTNLNTVTLKMTSLTAADTATYFCAKGLYSGGNYWGPGTLVTVSS
VL: AVLTQTPSPVSAAVGGTVSISCQSSQSVDENNYLSWFQQKPGQPPKLLIYRASTLESGVPSRFSGSGSGTQFTLTVSGVQCDDAATYYCLGGYSGYSDDGFGGGTEVVVK
notes: also called clone J111H1L10; AREG J111H1L10
For the molecule B2, the binding result with human amphiregulin is recorded as “binds”.

B3: anti-human pro-epiregulin monoclonal antibody J89H12L3 (antibody, V domains shown)
VH: KSVEESGGRLVTPGTPLTLTCTVSGIDLSTFAMAWVRQAPGKGLEYIGFISLSDATYYATWAKGRFTISKSSSTTVDLKIITPTAEDTATYFCARVVGDSSGYPNTFHPWGPGTLVTVSS
VL: QVLTQTPSPVSAAVGGTVTINCQASQSIHNSDFLAWYQQKPGQPPKLLIYRASKLPSGVPSRFKGSGSGTQFTLTISDLECDDAATYYCQGTYYSGGWYFTFGGGTEVVVK
notes: also called clone J89H12L3
Turning to B3, in the assay with human pro-epiregulin [2], the binding result was “binds”.

B4: anti-human pro-epiregulin monoclonal antibody J89H12L8 (antibody, V domains shown)
VH: KSVEESGGRLVTPGTPLTLTCTVSGIDLSTFAMAWVRQAPGKGLEYIGFISLSDATYYATWAKGRFTISKSSSTTVDLKIITPTAEDTATYFCARVVGDSSGYPNTFHPWGPGTLVTVSS
VL: QVLTQTPSPVSAAVGGTVTINCQASQNIHNSDFLAWYQQKPGQPPKLLIYRASKLPSGVPSRFKGSGSGTQFTLTISDLECDDAATYYCQGTYYSGGWYFTFGGGTEVVVK
notes: also called clone J89H12L8
As to B4, the binding result with human pro-epiregulin [2] is “binds”.

The values are drawn from US20180196057A1 (VENTANA MEDICAL SYSTEMS, published 2018).
